Test results: patent US20180155433A1 (GAMAMABS PHARMA, published 2018)

How the values were obtained:
[1] = target: T1, human HER3-Fc (recombinant HER3 extracellular domain Fc fusion, R&D systems) (human, UniProt P21860 20-643); assay: ELISA, HER3-Fc coated at 50 ng per well, GMB301 from 3.3 nM to 6.5 pM, HRP anti-human F(ab')2 detection
T1 construct: extracellular domain; Bought reagent (R&D Systems); Coated on plates at 50 ng per well; not shown: Fc part of the bought fusion (R&D Systems)
Method: GMB301 was incubated for 1 hour at 37° C. in Maxisorp® plates (Nunc) coated wells with 50 ng human HER3-Fc (recombinant HER3 extracellular domain Fc fusion, R&D systems).
Bound GMB301 antibody were detected by a conjugated HRP-F(ab′)2 goat anti human IgG F(ab′)2 specific (Interchim). After two hours at 37° C. and three washes with PBS-Tween₂₀ 0.5%, TMB (3,3,5,5-tetramethylbenzidine, Sigma) was used as substrate for detecting HRP activity and 1M H₂SO₄ was added to stop the reaction and plate was read at 450 nm.

[2] = target: T2, Recombinant human HER3 extracellular domain (ECD) (human, UniProt P21860 20-643); assay: ELISA, recombinant human HER3 ECD coated at 50 ng/well, antibody from 3 nM to 6.5 pM, four-parameter fit
T2 construct: extracellular domain; Bought from R&D Systems; also called recombinant human HER3 ECD; HER3 receptor
T2 sequence (P21860 20-643): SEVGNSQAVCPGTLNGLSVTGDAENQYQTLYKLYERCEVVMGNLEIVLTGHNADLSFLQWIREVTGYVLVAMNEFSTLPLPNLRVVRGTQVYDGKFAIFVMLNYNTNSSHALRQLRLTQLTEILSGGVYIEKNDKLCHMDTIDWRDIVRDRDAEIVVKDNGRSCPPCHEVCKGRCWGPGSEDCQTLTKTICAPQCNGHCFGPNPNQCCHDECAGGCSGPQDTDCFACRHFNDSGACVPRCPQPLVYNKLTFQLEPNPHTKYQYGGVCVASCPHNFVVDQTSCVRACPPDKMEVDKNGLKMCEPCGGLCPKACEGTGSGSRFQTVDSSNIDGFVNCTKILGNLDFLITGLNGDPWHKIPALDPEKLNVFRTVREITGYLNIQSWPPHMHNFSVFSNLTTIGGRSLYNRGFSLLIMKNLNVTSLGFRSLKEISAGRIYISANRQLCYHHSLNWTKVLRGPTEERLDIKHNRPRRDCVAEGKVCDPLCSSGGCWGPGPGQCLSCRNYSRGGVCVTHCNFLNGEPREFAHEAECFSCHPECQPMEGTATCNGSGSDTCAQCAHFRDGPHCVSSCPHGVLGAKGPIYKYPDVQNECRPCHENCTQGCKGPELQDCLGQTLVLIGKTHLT
Method: Nunc Maxisorp plates were coated with 50 ng/well recombinant human HER3 ECD for 16 hours at 4° C. and were blocked with 2% BSA in PBS. Anti-HER3 antibodies GMB301 and H4B-121-emb were serially diluted from 0.5 μg/ml to 1 ng/ml (3 nM to 6.5 pM) and incubated 1 hour at 37° C.

T1 sequence (P21860 20-643): as above

EC50 [1]: 0.19 nM
EC50 [2]: 0.19 nM
B1: GMB301 (chimeric low-fucose anti-human HER3 antibody) (antibody, human IgG1, kappa, V domains shown)
VH: EVKLVESGGGLVQPGGSLKLSCAASGFTFSSYTMSWVRQTPEKRLEWVAYISDGGGVTYYPDTIKGRFTISRDNAKNTLYLQMSSLKSEDTAMYYCARDRYGLFAYWGQGTLVTVSA
VL: DIVMTQSQKFMSTSVGDRVSITCKASQNVGIAVAWYQQKPGQSPKLLIYSASNRYTGVPDRFTGSGSGTDFTLTISNMQSEDLADYFCQQYSNYPYTFGGGTKLEIKR
modifications: low-fucose N-glycan (produced in YB2/0 cells)
notes: also called mAb GMB301; low-fucose chimerized antibody GMB301
